Measured values taken from patent US20170233497A1.
Like-named read-outs stand apart in the source and are kept apart here.

Experiments:
[1] = target: recombinant extracellular domain of EGFR (UniProt P00533); assay: EGFR-coat/anti-7D8-idiotype sandwich ELISA; mixture after 25 mM 2-MEA, 90 min, 37 °C; axis = total antibody of the mixture
[2] = target: mouse FcRn (neonatal Fc receptor), biotinylated (mouse) (UniProt Q61559); assay: FcRn ELISA at pH 6.0
[3] = target: recombinant extracellular domain of EGFR (UniProt P00533); assay: EGFR-coat/anti-7D8-idiotype sandwich ELISA; mixture after 25 mM 2-MEA, 90 min, 37 °C; axis = total antibody of the mixture; remark: listed apart in the source

EC50 (read off the curve) [1] [ng/mL]	fold higher binding efficiency to mouse FcRn compared to human FcRn [2] [fold]	EC50 (read off the curve) [3] [ng/mL]	Substance
300			IgG1-2F8-F405L+IgG4-7D8 (bispecific antibody)
300			IgG1-2F8-F405L+IgG4-7D8-CPPC (bispecific antibody)
	3		IgG1-2F8-ITL (antibody)
400		300	IgG4-2F8 x IgG4-7D8 (bispecific antibody)
		400	IgG4-2F8+IgG4-7D8 (deglyc) (bispecific antibody)
300			IgG4-7D8-CPPC x IgG4-2F8 (bispecific antibody)
	3		bispecific IgG1 generated from IgG1-2F8-ITL and IgG1-7D8-K409R (bispecific antibody)
